“Also recorded” adds a separate entry of the source.
What was measured:
[1] = tested on: eosinophils; experiment: Example 1: recombinant IL-5 and IL-5 DNA on eosinophil numbers in the blood of pigs; format: in vivo; conditions: recombinant IL-5 100 μg IM on 1 or 2 consecutive days, up to 12 days after treatment
Experimental: This trial compared the effects of recombinant porcine IL-5 protein and DNA delivered porcine IL-5 on eosinophil numbers in the blood of pigs.
6 pigs per treatment, approximately 7-8 weeks of age (weaners), mean weight of approx. 15 kg.
The experiment was conducted using medicated feed Barastoc EziWean 150 then Bunge Grolean CREEP ad libitum in an experimental environment (PC2 containment facilities).
Recombinant IL-5 was expressed in E. coli and purified using a GST tag system. (See, for example, Smith, D. B and Johnson, K. S. (1988), Gene, 67:31-40). IL-5 was cleaved from the GST tag, purified and tested in bioassays to confirm activity.
IL-5 cDNA (including the signal sequence) was cloned into the pCI DNA vector. DNA was purified using the Qiagen Giga Prep kit (Qiagen Inc. USA).
Total white cells and eosinophils were counted from slides.
Pre-bleed for haematology and dose with all treatments (1, 2, 3, 4, 5 as shown above)
8 hrs later, bleed for haematology

[2] = tested on: haemorrhagic E. coli; experiment: Example 6: haemorrhagic E. coli challenge of weaner pigs; format: in vivo; design: decrease in faecal shedding (total faecal culture scores) compared to saline treated controls / reduction in clinical signs compared to saline controls / reduction in E. coli culture scores at post-mortem compared to saline controls / reduction of bacterial load in the small intestine (foregut) compared with saline controls: concentration or dose not given beside the values
Experimental: Male weaner pigs, with a mean weight of 5.4 kg were allocated to groups of 8, with the mean weight being equalised between groups. Pigs were housed in group pens. Pigs were provided with pelleted feed and water ad libitum.
Pigs were treated with cytokines or the antibiotic, Apralan, and challenged with E. coli according to the schedule outlined in FIG. 42. E. coli were delivered orally in an 8 ml dose containing 10^8 cfu/ml. Blood was sampled from pigs by venipuncture at −2 days, day 0, and +6 days from initial challenge with E. coli as outlined in FIG. 42. Blood was assayed for immunological parameters as previously described. Pigs were weighed at day −2 and at the end of the trial on day 7.
Faecal samples were taken from each pig daily from day 2 to day 6 after challenge; these samples were cultured on sheep blood agar to quantify E. coli load. The condition of faeces on each day of challenge was noted as normal, wet or diarrhoea, as an indication of clinical signs.
At the conclusion of the experiment, pigs were euthanased and samples were taken from different areas in the gastro-intestinal tract, including the small intestine (25%, 50% and 75% along the length of the small intestine), the caecum and colon, and from the faeces. These post-mortem samples were also plated out on sheep blood agar to quantify E. coli load. Growth on sheep blood agar was scored from 0 to 5 (where 0 was no growth, 1 signified growth in the primary inoculum, 2 signified growth in the first streak, 3 signified growth in the 2nd streak, 4 signified growth in the 3rd streak, and 5 signified growth of E. coli in the final streak), and group means and standard errors were calculated.

[3] = tested on: eosinophils; experiment: Example 5: haematology, eosinophil levels; design: species or system pigs; conditions: pig, in vivo
Experimental: (§1) Pigs were weaned and weighted at the start of the experiment (D0, W0) and weekly until the end of the weaner period (W6), at the end of the grower (W13) and finisher (W19) stages and once during the grower (W9) and finisher (W16) stages. Blood and sera samples were collected at the start (before treatments) and end of the weaner, grower and finisher periods. Blood and sera were taken prior to treatment injection. Haematology (totals and differentials) was performed.
Haematology and differentials were undertaken at various time points during the trial. There were no significant changes between groups for these parameters except for eosinophil levels (FIG. 41).

[4] = Example 5: repeat growth performance trial of IL-5 with normal, reduced and no antibiotics; format: in vivo, pigs
Experimental: This trial repeats the evaluation of IL-5 to improve growth performance and/or immunity of pigs by comparing the growth rate and health of male and female weaner pigs (from 28 days old: Week 0 of the trial) through the weaner (Weeks 0-6), grower (Weeks 6-13) and finisher (Weeks 13-19) stages to slaughter (Week 19), which were administered with recombinant porcine cytokine IL-5, and saline was used as a control, with and without standard weaner medicated water and feed, and reduced antibiotics, in a commercial piggery environment.
This trial (weaner/grower/finisher trial) was designed to investigate the effect of providing IL-5 and the controls (saline) from weaning to slaughter with normal, reduced and no antibiotics in water supply. The experiment evaluates the capacity of IL-5 for replacing antibiotics under commercial pig rearing conditions and to determine the effect of continuous administration of the cytokines throughout the life of the pig on performance and carcass characteristics.
The experiment was undertaken in a commercial environment where the pigs were weaned at 28 days of age. All injections were 1 ml. There were 16 pigs per treatment, 8 males and 8 females per treatment. The overall weight of pigs in each treatment was similar at the start of the experiment.
−means no antibiotic supplements in water or feed throughout trial.
0.5 means single antibiotics used throughout trial at normal dose
+ means normal antibiotic regime used throughout trial IL-5+ means IL-5 administered during Weaner/Grower/Finisher periods.
IL-5+p means IL-5 administered during Weaner period only.
A. Saline injection, 1 ml IM neck muscle.
B. 100 μg IL-5 injection, 1 ml IM neck muscle.
Weaner stage: 2 injections per week,
Grower and finisher stage 1 injection per week.
as §1
At the start of the trial, the mean weight and the variance of all groups was equalised to reduce confounding influence of starting weight. Thus, the positive effects on growth were due to treatment effects.

[5] = 2nd trial, normal medication, weaner period
[6] = normal antibiotics, IL-5 during weaner, grower, finisher periods

B1: interleukin 5 (protein, UniProt Q9MYM5 22-134, looked up)
Interleukin-5: VENTMNRLVAETLTLLSIHRTLLIGDGNLMISTPVHTNHQLCIEEVFQGIDTLKNQTARGDAVEKLFQNLSLIKEYIDRQKKNCGGERWRVTQFLDYLQVFLGVINTEWTMES
notes: recombinant porcine IL-5 protein expressed in E. coli; + / − = with / without antibiotic medicated feed and water, +p = weaner period only
percentage eosinophils of white blood cells (WBC) [1]: transient (several days) | percentage eosinophils of white blood cells (WBC) ([1]; listed as recombinant IL-5): sustained increase in eosinophil numbers in blood over several days; also recorded: two doses being more effective than one dose; also recorded: more effective than DNA in increasing eosinophil numbers | clinical signs (wet faeces or diarrhoea) ([2]; 5 days after challenge): fewer recorded cases of wet faeces and diarrhoea than saline controls or Apralan treatment | E. coli shedding in faeces (faecal culture) ([2]; day 2 to day 6 after challenge): decreased E. coli shedding in faeces | decrease in faecal shedding (total faecal culture scores) compared to saline treated controls ([2]; entire challenge period): 43% | reduction in E. coli culture scores at post-mortem compared to saline controls ([2]; gastro-intestinal tract total): 15% | appetite (daily feed intake per pig) during E. coli challenge ([2]; pig, in vivo): improved appetite compared to saline treated pigs | bacterial load in areas of the gastro-intestinal tract at post-mortem ([2]; pig, in vivo): reduced bacterial load in most areas of the gastro-intestinal tract | days after challenge with bacterial shedding significantly less than saline treated controls ([2]; pig, in vivo): 3/5 | group mean total E. coli culture score at post-mortem (out of a possible 30) ([2]; pig, in vivo): less than 15 | reduction in clinical signs compared to saline controls ([2]; pig, in vivo): 64% | reduction of bacterial load in the small intestine (foregut) compared with saline controls ([2]; post-mortem): 36% | levels of eosinophils in blood (absolute numbers and differentials) [3]: significantly increased the levels of eosinophils in blood | increase in average weights over medicated saline control [4, 5]: 7% | increase in weight gain over medicated saline control [4, 5]: 11% | total group weights, weaner period ([4]; no, reduced or normal antibiotics): beneficial effects on total weights, especially with reduced or no antibiotic supplements | average weight increases, weaner-only vs continuous IL-5 ([4]; normal antibiotics): no significant differences between groups given IL-5 during the weaner or continuously throughout the weaner, grower and finisher periods | change of final average weight vs saline control [4, 6]: ~−1.5% | decrease of final average weight vs saline control [4, 6]: 1.3 kg | average weights ([4]; normal antibiotics, W6 to W13): consistently higher average weights than the saline control (with normal antibiotics) from the end of the weaner period (W6) to the end of the grower period (W13) | average weight higher than IL-5+p ([4]; normal antibiotics, Week 13): 1.3 kg | average weight higher than saline control ([4]; normal antibiotics, Week 13): 4.7 kg | average weight lower than IL-5+p ([4]; normal antibiotics, Week 19): 2 kg | average weight lower than saline control ([4]; normal antibiotics, Week 19): 1.3 kg | average weight gains during the Weaner period ([4]; vs respective saline controls, with or without antibiotic supplements): consistently higher average weight gains during the Weaner period compared to the respective saline controls with or without antibiotic supplements in water or feed | average weight gains during the Weaner period ([4]; vs saline controls without antibiotic supplements): consistently higher average weight gains during the Weaner period

From patent US20040170601A1, “Method of improving the growth performance of an animal” (priority 2001, published 2004)
